Experimental data reported in the supplement of paper PMC9170038.

Experiments:
Conditions in all cases: FMN input: 0 or 200 uM; Eterna round: R93 (includes R88 designs)
MS2 coat protein [1] = experiment: apparent KD of MS2 coat protein, switch ON state; designed switch direction (-1 OFF switch, 1 ON switch): 1; higher = weaker reporter binding
In short: (§1)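 Apparent KD is reported per design as the median of normalised binding-curve fits across its clusters. The RNA switches were made by on-chip transcription from Illumina sequencing clusters. SNAP-549-labelled MS2 coat protein was then added in twofold steps (0.7 or 1.5 nM to 3 µM; 0.8–1.5 h to 10–20 min per step) in 100 mM Tris-HCl pH 7.5, 80 mM KCl, 4 mM MgCl2, without or with constant ligand.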

MS2 coat protein [2] = experiment: apparent KD of MS2 coat protein, switch OFF state (with FMN for OFF switches, without FMN for ON switches); designed switch direction (-1 OFF switch, 1 ON switch): 1; higher = weaker reporter binding
In short: as §1

MS2 coat protein [3] = experiment: apparent KD of MS2 coat protein, switch ON state; designed switch direction (-1 OFF switch, 1 ON switch): -1; higher = weaker reporter binding
In short: as §1

MS2 coat protein [4] = experiment: apparent KD of MS2 coat protein, switch OFF state (with FMN for OFF switches, without FMN for ON switches); designed switch direction (-1 OFF switch, 1 ON switch): -1; higher = weaker reporter binding
In short: as §1

| Sequence | apparent KD of MS2 coat protein (MS2 coat protein [1]) | apparent KD of MS2 coat protein (MS2 coat protein [2]) | apparent KD of MS2 coat protein (MS2 coat protein [3]) | apparent KD of MS2 coat protein (MS2 coat protein [4]) |
| --- | --- | --- | --- | --- |
| GGGAGGAAGAGAGAGGAUAUCCAAAGGAAAACAUGAGGAUCACCCAUGUAAAAGGUAGGAAAUUGGGAGAAGGCUCAAGAGAAAG [salish99-ss2-054] | 29.8 nM | 51.6 nM |  |  |
| GAAAAACAUGAGGAUCACCCAUGUAAAAAUAUGGGAGGAUAUUGAAAGACGAAAGUCAAACAAGAAGGCCUAAAAG [Garnet 2] | 22.2 nM | 119 nM |  |  |
| AACAGUACAGGAUAUACAUGAGGAUCACCCAUGUGGGAGAAAAGAUCGAGAGAUCAAUGUAGAAGGGUACUGGA [JL In the Red 07] |  |  | 115 nM | 80.1 nM |
| AGGAAACAUGAGGAUCACCCAUGUUAGGAUAUGAACGAAAAUAAAUAAAAAUAAAAGUUCAGAAGGGACAAAAA [66%, Wbt, 19] |  |  | 38.4 nM | 39.6 nM |
| AGGGAACAUGAGGAUCACCCAUGUGAGGAUAUACAAAAGAAAAGAAAAGAAAGAAGAAGUAGAAGGUACAAGAA [Neferka] |  |  | 23.9 nM | 43.9 nM |
| AAUGGUGCAGGAUAUACAUGAGGAUCACCCAUGUACAUCAGACAUAUGGUCGAAGCAUGUAGAAGGGCACCAAA [Ex 3May 56] |  |  | 145 nM | 183 nM |
| GGUUGGCGAGGAUAUACAUGAGGAUCACCCAUGUGAGAGAAAAAAGUGAGUAAGAAAAGUAGAAGGCGCUGACG [salish99-ex3-33] |  |  | 49.9 nM | 4710 nM |
| AAAAAGUGAGGAUAUACAUGAAAAAAAAAAAAAAAAAAAAAACAUGAGGAUCACCCAUGUAGAAGGCGCAAAAA [GC GU GC sandwich] |  |  | 31.5 nM | 43.1 nM |
| AAAAAACAUGAGGAUCACCCAUGUAAGGAUAUGCUAAAAAACGCAAAAAAAGCGAAUAGCAGAAGGUACAAAAG [Mat - Exclusion 1 - Eli mod - D81] |  |  | 36.4 nM | 70.5 nM |
| AAACAGGGAGGAUAUACACCAUACAAACCUCUAAACAAAAGACAUGAGGAUCACCCAUGUAGAAGGCCCAACAA [Default title] |  |  | 57.5 nM | 103 nM |
| AAAAAACAUGAGGAUCACCCAUGUCAGGAUAUCGUAAAAAAAAAAAAAAAAAAAAAUGCGAGAAGGGACUGGAA [exclusion1-cac2] |  |  | 86.9 nM | 94.5 nM |
| CCCAUGUCAGGAUAUCAGUAGUAAAAAAAAAAAAUUACUACUGAGAAGGGACAUGAGGAUCACCCAUGUCCCUU [EX4 314: Super Stable 14] |  |  | 16.9 nM | 14.2 nM |
| AGCUUCAGAGGAUAUACUUGAGUGAUAAAAGUCUGAUAACUACAUGAGGAUCACCCAUGUAGAAGGCUGUAGCA [Ex2 Design 168: Sub-opt 32] |  |  | 19.1 nM | 46 nM |
| AGUUGGCGAGGAUAUACAUGAGGAUCACCCAUGUGAGAGAAAAAAGUGAGAAAGAAAAGUAGAAGGCGCUCACA [JL Lego Mod 12] |  |  | 62.1 nM | 49.7 nM |
| GAAAACAGAGGAUAUACGAAAUUGACACGAAAAGUGCAGGGACAUGAGGAUCACCCAUGUAGAAGGCUGAAGAA [Meechl MS2... 60% 1] |  |  | 27.7 nM | 48.2 nM |
| AAUUAGGUAGGAUAUACAUGAGGAUCACCCAUGUAGGAAAAAAGCUACGAAAAAGAAUGUAGAAGGACCUAAAA [Ex 3 Sunny] |  |  | 13.2 nM | 18.7 nM |
| AACUGACAUGAGGAUCACCCAUGUCAGGAUAUGACUUCGAAAAAAAAAAAAAACGAUGUCAGAAGGGACAUGGA [Design 66: Sub-opt N] |  |  | 17.5 nM | 27.2 nM |
| GAAGAACAUGAGGAUCACCCAUGUCAGGAUAUGCGCAAGGGAAUAAUAACUUGCGGAAGCAGAAGGGACAAGAA [Ex 1 May 50] |  |  | 18.9 nM | 35.9 nM |
| CUCAAGUGAGGAUAUUAAAGAAAAGAAGAGAAAGAAAAGAAUAAGAAGGCACAUGAGGAUCACCCAUGUAAGAA [EteRNA is fun!] |  |  | 26.4 nM | 33 nM |
| AAGAAACAUGAGGAUCACCCAUGUAAAUUUAAGAGAGGAUAUCGUACAUGGAAGAUUUAACGAGAAGGCUCUAGAA [Pariah 2 (MS2 Riboswitches - Same State 1)] |  | 36.9 nM |  |  |
| AAUAAGUGAGGAUAUGUGAAUAGAAGAUAAGAUACCCAAAAACAGAAGGCACAUGAGGAUCACCCAUGUAAAUA [JR_Exc004_Sub009] |  |  | 33.7 nM | 24.3 nM |
| AACUAGUCAGGAUAUACGAACAUGUCAAAAAACAUAAAGGGACAUGAGGAUCACCCAUGUAGAAGGGACUAGCA [74%, Web mod - With 4 less G's] |  |  | 161 nM | 262 nM |
